Earlier results in PMC4245495.

Target: Uroplakin Ia (UniProt O00322)
UniProt O00322, sequence (O00322 whole entry): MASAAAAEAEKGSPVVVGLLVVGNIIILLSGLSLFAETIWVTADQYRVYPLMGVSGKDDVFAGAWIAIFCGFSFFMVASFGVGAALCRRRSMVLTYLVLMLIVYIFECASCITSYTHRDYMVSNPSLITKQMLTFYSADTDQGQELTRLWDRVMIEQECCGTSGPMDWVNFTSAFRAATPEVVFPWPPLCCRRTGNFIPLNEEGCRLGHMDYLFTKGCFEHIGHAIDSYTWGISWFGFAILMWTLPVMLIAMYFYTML

Kd: 100 nM
Substance: FimH (from UniProt P08191)
